According to patent US20230228751 (APTAMER DIAGNOSTICS LIMITED, published 2023):
Read-outs that look alike come from different tables or passages of the source.

Columns and labels:
[1] = biological target: SARS-CoV-2 spike S2 subunit (SARS-CoV-2, UniProt P0DTC2 SEQ:1-528); assay: BLI; conditions: label: 5'-biotin
[2] = biological target: T1, SARS-CoV-2 spike S1 subunit (SARS-CoV-2, UniProt P0DTC2 SEQ:1-670); assay: BLI; conditions: tags: His tag, SinoBiological 40591-V08B1; label: 5'-biotin
SARS-CoV-2 spike RBD = SARS-CoV-2 spike RBD (SARS-CoV-2, UniProt P0DTC2 SEQ:1-223); assay: BLI; conditions: tags: His tag, SinoBiological 40592-V08H
[3] = biological target: SARS-CoV spike S1 subunit (SARS-CoV, UniProt P59594 SEQ:14-667); assay: BLI; conditions: tags: SinoBiological
[4] = biological target: SARS-CoV-2 spike protein trimer (SARS-CoV-2, UniProt P0DTC2); assay: ELONA
Description: One ELONA plate (immobilised with the S1 binding aptamer A3) was then incubated with a fixed concentration (0.5 μM) of either the aptamer population isolated against the S2 subunit of the SARS-CoV-2 spike protein (S2_8R pool) or full-length aptamer clones S2_A2 (SEQ ID NO: 146), S2_B1 (SEQ ID NO: 150) and S2_G1 (SEQ ID NO: 171) (FIG. 16).

[5] = biological target: T1, SARS-CoV-2 spike S1 subunit; assay: BLI; conditions: tags: His tag, SinoBiological 40591-V08B1; label: 5'-biotin; remark: listed apart in the source
Description: The affinity of four chosen aptamers (aptamer S1_A3-A (SEQ ID NO: 4); aptamer S1_A6 (SEQ ID NO: 8); aptamer S1_A8 (SEQ ID NO: 9); aptamer S1_F2 (SEQ ID NO: 43)) was determined using the BLI assay according to the protocol described above. The biotinylated aptamers were immobilised onto streptavidin biosensor probes (as described above) and then interaction monitored with a concentration series of SARS-CoV-2 Spike protein S1 (250 nM, 125 nM, 62.5 nM, 31.25 nM, 15.63 nM, 7.81 nM, 0 nM diluted in 1× ‘high salt’ aptamer selection buffer). KD values were calculated using the ForteBio software (ForteBio Data Analysis 8.0,), using a 2:1 binding model (FIGS. 6 & 7).

Row | Binder | binding result [2] | binding result (SARS-CoV-2 spike RBD; label: 5' biotin) | binding result ([3]; label: 5' biotin) | further results
1 | S2_B1_F12 (ssDNA) DNA: CCAGTGTAGACTACTCAATGCCGTGGACTGGTCGGGTTTGGATTCGGCAGATGAATCAGTAGTA |  |  |  | binding result [1]: binds
2 | S1_D4 (ssDNA) DNA: CCAGTGTAGACTACTCAATGCGGCTTCGGGAGGGGGGGCGGGTAAAAAGCCCATTGCCCTAGTACTATCCACAGGTCAACC | binds | binds | no binding | 
3 | S1_E9 (ssDNA) DNA: CCAGTGTAGACTACTCAATGCGGCTTCGAGAGGGGGGGCGGGTAAAAAGTCCATTGCCCTAGTACTATCCACAGGTCAACC | binds | binds | no binding | 
4 | S1_D2 (ssDNA) DNA: CCAGTGTAGACTACTCAATGCTAGGTCCGTGGGATGGGTGGGGGGGAGGACCAGCCAGCGAGTACTATCCACAGGTCAACC | binds | binds | no binding | 
5 | S2_B1 (ssDNA) DNA: CCAGTGTAGACTACTCAATGCCGTGGACTGGTCGGGTTTGGATTCGGCAGATGAATCAGTAGTACTATCCACAGGTCAACC |  |  |  | binding result [4]: binds; binding result [1]: binds
6 | S1_D8 (ssDNA) DNA: CAGTGTAAGACTACTCAATGCCGTGGACTGGTCGGGTTTGGATTCGGCAGATGAATCAGTAGTACTATCCACAGGTCAACC | binds | binds | no binding | 
7 | S1_F5 (ssDNA) DNA: CCAGTGTAGACTACTCAATGCGTGTGGTAACCTTGACCTTGGATTATGGGTTTGGGCGGGCGGGTACTATCCACAGGTCAACC | binds | binds | no binding | 
8 | TTGACCTCTGGATATGGGTGGGAGGGATGGGT (ssDNA) [S2_G1_F21] |  |  |  | binding result [1]: binds
9 | S2_A2 (ssDNA) DNA: CCAGTGTAGACTACTCAATGCCGATGGGTCGGGGGGGTGGGTAGGCATTGATCGCTCCTTTCGTACTATCCACAGGTCAACC |  |  |  | binding result [4]: binds; binding result [1]: binds
10 | S1_C3-B (ssDNA) DNA: CCAGTGTAGACTACTCAATGCCGATGGGTCGGGGGGGTGGGTAGGCATTGATCGCTCCTTCCGTACTATCCACAGGTCAACC | binds | binds | no binding | 
11 | S1_D1 (ssDNA) DNA: CCAGTGTAGACTACTCAATGCATTCCTTTTGCTACCTATATTCCGTCTCCAGCATAATCCCGTACTATCCACAGGTCAACC | binds | binds | no binding | 
12 | S1_F2 (ssDNA) DNA: CCAGTGTAGACTACTCAATGCTGCGTTGACTTGATCCTGTGGTATATGGGTGGGAGGGTCGGGTACTATCCACAGGTCAACC |  |  |  | binding result (SARS-CoV-2 spike RBD; label: 5'-biotin): binds; binding result ([3]; label: 5'-biotin): no binding; binding result [5]: binds
13 | S1_A8 (ssDNA) DNA: CCAGTGTAGACTACTCAATGCTGTGTTGACTTGATCCTGTGGTATATGGGTGGGAGGGTCGGGTACTATCCACAGGTCAACC |  |  |  | binding result (SARS-CoV-2 spike RBD; label: 5'-biotin): binds; binding result ([3]; label: 5'-biotin): no binding; binding result [5]: binds
14 | S1_C11 (ssDNA) DNA: CCAGTGTAGACTACTCAATGCCGTGGACTGGTCGGGTTTGGATTCGGCAGATGAATCCAGTAGTACTATCCACAGGTCAACC | binds | binds | no binding | 
15 | S1_F3-A (ssDNA) DNA: CCAGTGTAGACTACTCAATGCGGTATGAATATGATCGGCCCTATCCCTTCAGCTATTCCGGGTACTATCCACAGGTCAACC | binds | binds | no binding | 
16 | S1_F11 (ssDNA) DNA: CCAGTGTAGACTACTCAATGCGTGGGAAGGGTGGGCGGGAGCATTGATAACTTCGGAGGAGCGTACTATCCACAGGTCAACC | binds | binds | no binding | 
17 | S1_A6 (ssDNA) DNA: CCAGTGTAGACTACTCAATGCTGTTATGACTTGACCTTGGGTTATGGGTTTGGGCGGGAGGGTACTATCCACAGGTCAACC |  |  |  | binding result (SARS-CoV-2 spike RBD; label: 5'-biotin): binds; binding result ([3]; label: 5'-biotin): no binding; binding result [5]: binds
18 | S1_E10 (ssDNA) DNA: CCAGTGTAGACTACTCAATGCTGTGTTGACTTGACCTTGGATTATGGGTTTGGGCGGGAGGGTACTATCCACAGGTCAACC | binds | binds | no binding | 
19 | S2_G1 (ssDNA) DNA: CCAGTGTAGACTACTCAATGCGGCTGTGTGACTTGACCTCTGGATATGGGTGGGAGGGATGGGTACTATCCACAGGTCAACC |  |  |  | binding result [4]: binds; binding result [1]: binds
20 | S1_E2 (ssDNA) DNA: CCAGTGTAGACTACTCAATGCGTGTGGTGACCTTGACCTCTGGATATGGGTGGGAGGGGCGGGTACTATCCACAGGTCAACC | binds | binds | no binding | 
21 | S1_C4 (ssDNA) DNA: CCAGTGTAGACTACTCAATGCTACTGATTCATCTGCCGAATCCAAACCCGACCAGTCCACGGTACTATCCACAGGTCAACC | binds | binds | no binding | 
22 | S2_A2_F12 (ssDNA) DNA: CCAGTGTAGACTACTCAATGCCGATGGGTCGGGGGGGTGGGTAGGCATTGATCGCTCCTTTCGT |  |  |  | binding result [1]: binds
23 | S1_A3-A (ssDNA) DNA: CCAGTGTAGACTACTCAATGCGTGGGAAGGGTGGGTGGGAGCATTGATAACTCGGAGGAGTGTACTATCCACAGGTCAACC |  |  |  | binding result (SARS-CoV-2 spike RBD; label: 5'-biotin): binds; binding result ([3]; label: 5'-biotin): no binding; binding result [5]: binds; binding result ([4]; label: 5' biotin): binds
24 | S1_F3-B (ssDNA) DNA: CCAGTGTAGACTACTCAATGCGTGGGATGGGTGGGTGGGAGCATTGATAACTCGGAGGAGCGTACTATCCACAGGTCAACC | binds | binds | no binding | 
25 | S1_F12 (ssDNA) DNA: CCAGTGTAGACTACTCAATGCGTGGGAAGGGAGGGCGGGAGCATTGATAACTCGGAGGAGCGTACTATCCACAGGTCAACC | binds | binds | no binding | 
26 | S1_C12 (ssDNA) DNA: CCAGTGTAGACTACTCAATGCGTGGGAAGGGTGGGTGGGAGCATTGATAACTCGGAGGAGCGTACTATCCACAGGTCAACC | binds | binds | no binding | 
